{
  "source": "patent US8383797B2",
  "about": "“Luciferase gene optimized for use in imaging of intracellular luminescence” (Toyo Boseki Kabushiki Kaisha, priority 2005, dated 2013)",
  "molecules": {"B1": {"name": "improved-type click beetle luciferase: Pyrearinus termitilluminans click beetle luciferase expressed from the modified gene of SEQ ID NO: 2 (protein)", "chain": "MEREKNVVYGPEPKHPLGNFTAGEMLYNALHKHSHIPQAILDVMGNESLSYQEFFDTTVKLGQSLQNCGYKMNDVVSICAENNKRFFIPIISAWYIGMVVAPVNEDYIPDELCKVTGISKPILVFTTRKILPKVLEVKDRTNYIKRIIILDSEENLLGCESLHNFMSRYSDNNLQTFKPLHYDPVDQVAAILCSSGTTGLPKGVMQTHRNICVRLTHASDPRVGTQLIPGVSVLAYLPFFHAFGFSINLGYFMVGLRVVMLRRFNQEVFLKAIQDYEVRSVINVPSTILFLSKSPLVDKYDLSTLAELCCGAAPLAKEVAEIAVKRLNLPGIRCGYGLTESTSANIHTLHNEFKSGSLGKVTPYMAAKIIDRNTGEALGPNQVGELCIWGPMVTKGYVNNPQATKEAIDDDGWLHSGDFGYYDEDEYFYIVDRYKELIKYKGYQVAPVELEEILLQHPGIRDVAVVGIPDIEAGELPAGFVVKQPGAQLTAKEVYDFLAQRVSHSKYLRGGVRFVDSIPRNVTGKISRKELREALMEKASKL", "modifications": "Pyrearinus termitilluminans"}},
  "key": {"[1]": {"tested_on": "cultured fibroblast NIH3T3 cells", "test": "Transient assay of Bmal1 promoter activity, luminescence of cell extract", "format": "cell-based", "conditions": "PEST-fused luciferase, NIH3T3, cell lysate, luminometer", "procedure": "The aforementioned reporter vector (200 ng) was introduced into the cultured fibroblast NIH3T3 cells seeded in a 24-well plate by the lipofection method, the cells were cultured at 37° C. for 24 hours, and disrupted with 300 μL of a cell lysis agent (cultured cell lysis agent for PicaGene Dual Seapansy supplied from Toyo Ink MFG Co., Ltd.). A luminescent substrate solution (50 μL) (PicaGene luminescence reagent II) was added to a cell extract solution (50 μL), and 20 seconds of luminescence was measured using a luminometer (AB2250 supplied from ATTO Corporation) (FIG. 1B)."}, "[2]": {"tested_on": "cultured fibroblast NIH3T3 cells", "test": "Real-time monitoring of luminescence under control of the Bmal1 promoter in living cells", "format": "cell-based", "conditions": "PEST-fused luciferase, NIH3T3, 200 μM D-luciferin", "procedure": "Short lifespan-type luciferase was made by ligating a PEST sequence (SEQ ID NO: 7) of murine ornithine decarboxylase to a wild-type (SEQ ID NO: 1) and improved-type (SEQ ID NO: 2) click beetle luciferase cDNA. Vectors in which these had been inserted downstream of a murine circadian clock gene Bmal1 promoter (GenBank Accession No. AB064982) were made. Subsequently, 1 μg of each vector was introduced into cultured fibroblast NIH3T3 cells seeded in a 35 mm culture dish by a lipofection method (LipofectAMINE PLUS, Invitrogen), and the cells were cultured at 37° C. for 24 hours and treated with a DMEM medium containing 100 nM dexamethasone for 2 hours. The medium was replaced with a DMEM medium containing 200 μM D-luciferin and 10% (w/v) bovine serum, and then one minute of luminescence was measured every 15 minutes for 5 days in real time using a real-time gene expression measurement apparatus (AB2500 supplied from ATTO Corporation) (FIG. 1A)."}, "HeLa S3 cells": {"tested_on": "HeLa S3 cells", "test": "Analysis of AP1 response sequence in living cells, 96-well plate", "format": "cell-based", "conditions": "HeLa S3, TPA or EGF stimulation, 0.2 mM D-luciferin", "procedure": "HeLa S3 cells were seeded at 3×10^4 cells (100 μL) per well in a 96-well white opaque plate, and cultured in Dulbecco's Modified Eagle's Medium DMEM (Nissui Pharmaceutical Co., Ltd.) containing 10% FCS. The following day, 0.2 μg per well of the plasmid pELuc-AP1 or pGL3-AP1 (diluted with 25 μL of DMEM containing no FCS) and 0.5 μL of Lipofectamine 2000 transfection reagent (Invitrogen, diluted with 25 μL of DMEM)) were mixed and added to the cells in the medium replaced with 100 μL of DMEM+0.1% FCS, which was incubated for 24 hours to introduce the gene. The following day, the medium was either not replaced, or replaced with DMEM+0.1% FCS (further containing 0.2 mM D-luciferin) containing 0.01 μM TPA (Sigma), 0.1 μM TPA, 1 μM TPA or 10 ng/mL of EGF, and the cells were incubated for 5 hours. Subsequently, the luminescence was measured using a plate reader 1420 ARVOMX (Perkin Elmer). In the graph for measurement values, readout values were plotted, and in the graph for induction ratios, an expression induction ratio at each concentration calculated when the value in an additive-free condition equaled 1 was plotted."}, "[3]": {"tested_on": "cultured fibroblast NIH3T3 cells", "test": "Bioluminescence imaging of cells expressing FLAG-tagged luciferase", "format": "cell-based", "conditions": "CMV promoter, FLAG tag, NIH3T3, 200 μM D-luciferin, CCD camera, three minutes", "procedure": "A FLAG tag sequence (MDYDDDDK; SEQ ID NO: 15) was ligated to the N terminus of the firefly luciferase cDNA (Luc(+), supplied from Promega) derived from Photinus pyralis produced in North America and the improved-type click beetle luciferase cDNA (SEQ ID NO: 2). The expression vector (2 μg) obtained by inserting one of them downstream of the CMV promoter was introduced in the cultured fibroblast NIH3T3 cells by the lipofection method, and the cells were cultured at 37° C. for 24 hours. Subsequently, the medium was replaced with a DMEM medium containing 200 μM D-luciferin and 10% (w/v) bovine serum, and three minutes of bioluminescence was measured using a CCD camera (Cellgraph supplied from ATTO Corporation) cooled to −60° C."}, "[4]": {"tested_on": "cultured fibroblast rat1 cells", "test": "Real-time monitoring of luminescence under control of the Bmal1 promoter in living cells", "format": "cell-based", "conditions": "PEST-fused luciferase, luminescence amount integrated within 24 hours", "procedure": "Short lifespan-type luciferase was made by ligating the PEST sequence (SEQ ID NO: 7) of murine ornithine decarboxylase to firefly luciferase cDNA (Luc(+), supplied from Promega) derived from Photinus pyralis produced in North America and improved-type click beetle luciferase cDNA (SEQ ID NO: 2). Vectors in which these had been inserted downstream of a murine circadian clock gene Bmal1 promoter (GenBank Accession No. AB064982) were made. Subsequently, 1 μg of each vector was introduced into cultured fibroblast rat1 cells seeded in a 35 mm culture dish by the lipofection method (LipofectAMINE PLUS), and the cells were cultured at 37° C. for 24 hours and treated with the DMEM medium containing 100 nM dexamethasone for 2 hours. The medium was replaced with a DMEM medium containing 200 μM D-luciferin and 10% (w/v) bovine serum, and then one minute of luminescence was measured every 15 minutes for 5 days using the real-time gene expression measurement apparatus (AB2500 supplied from ATTO Corporation) (FIG. 2)."}, "[5]": {"test": "pH dependency of luminescence of recombinant luciferase enzyme preparations", "format": "biochemical", "conditions": "pH 6.6 to 8.8, relative activity with pH 8.0 set as 100", "procedure": "A click beetle-derived luciferase enzyme preparation was acquired as a recombinant body by inserting the luciferase gene PtGRm in the vector pELuc-test (Toyobo Co., Ltd.) into the expression vector for Escherichia coli and expressing it in Escherichia coli. As a firefly luciferase enzyme preparation, QuantiLum Recombinant Luciferase (Promega, described as fLuc in the figure) was used. For each enzyme preparation, a luminescence reagent containing 15 mM MgSO4, 6 mM EDTA, 4 mM Co-enzyme A, 1.2 mM D-luciferin, 6 mM DTT, 0.2% Nonidet P40, 2 mM ATP and 2 μg/mL of the enzyme preparation was prepared. Then, 100 μL of ATP solution at […], 0.2 mM or 1 mM and 100 μL of 100 mM Hepes-NaOH pH 6.6 to 8.8 were mixed, and the luminescence was measured.\nA graph of luminescence measurement values and a graph obtained by plotting the relative activity at each pH when the measurement value at pH 8.0 was set as 100 in each luciferase are shown in FIG. 12."}},
  "data": [
    {"molecule": "B1", "values": [
      {"measurement": "luminescence intensity relative to wild-type luciferase", "setting": "[1]", "value": "about 150 times"},
      {"measurement": "luminescence intensity relative to wild-type luciferase", "setting": "[2]", "value": "about 100 times"},
      {"measurement": "luminescence intensity relative to conventional luciferase", "setting": "HeLa S3 cells", "value": 15, "unit": "times"},
      {"measurement": "bioluminescence signal of cells compared with firefly luciferase", "setting": "[3]", "value": "clearly emit strong signals"},
      {"measurement": "luminescence intensity relative to firefly luciferase derived from Photinus pyralis", "setting": "[4]", "value": "≥ 15", "unit": "times"},
      {"measurement": "variation of luminescence activity due to pH compared with firefly luciferase", "setting": "[5]", "value": "variation due to the pH values is smaller"}
    ]}
  ]
}
